Results reported in patent publication US10967068B2, “Stability-modulating linkers for use with antibody drug conjugates” (priority 2014, dated 2021).
*1 amine or outer side, *2 acyl side, *3 side chain or, on linkers, in order; H or OH if unused. Where a SMILES comes first, the peptide text is derived from it. [ ]: non-standard residue; d: D form. The star is where a group is joined. Dolaproine = CO[C@@H]([C@@H]1CCCN1)[C@@H](C)C(=O)O; Acetyl(2-(4-imidazolyl)) = O=C(Cc1c[nH]cn1)*; Dil = CC[C@H](C)[C@H](NC)[C@@H](CC(=O)O)OC; Benzenesulfonyl = O=S(=O)(c1ccccc1)*; PABC = O=C(OCc1ccc(N[*:1])cc1)[*:2]; Doe = c1ccc(C[C@H](N*)c2nccs2)cc1; Cit = NC(=O)NCCC[C@H](N)C(=O)O; Propanoyl(3-OH) = O=C(CCO)*; X1 = NCCOCCOCCOCCOCCOCC*; Aib = CC(C)(N)C(=O)O; CO = O=C([*:1])[*:2]; Ethyl(2-NH2) = NCC*; X3 = NCCOCC*

Assay: In Vitro Stability Assay—Mouse Plasma
Type: in vitro ADME
Details: for DAR: before plasma incubation
[1] = attachment position L11B, % DAR remaining after plasma 3 or 4.5 days

Protocol: 100-200 ug of ADC were incubated in mouse plasma (provided by Bioreclamation) supplemented with 1×PBS to the final ADC concentration of 0.125 mg/mL. Following incubation for 3-7 days, samples were diluted with an equal volume of 1×PBS, and ADCs were isolated using Trop2 antigen coupled to CNBr-activated Sepharose (GE Healthcare) using standard protocols. Drug-antibody ratios were assessed before and after in vitro exposure using HIC methods and mass spectrometry.
DAR values for conjugates purified after plasma incubation were compared to DAR values prior to plasma treatment.

Row | SMILES | DAR after plasma incubation for 3 to 4.5 days (attachment position L11B) | Conjugate stability (%) [1] | DAR (attachment position L11B) | DAR after plasma incubation for 3 to 4.5 days (attachment position H16) | Conjugate stability (%) (attachment position H16, % DAR remaining after plasma 3 or 4.5 days) | DAR (attachment position H16) | DAR (Trop-2 antibody attachment position TG6, HIC or mass spectrometry) | Conjugate stability (%) (attachment position TG6, % DAR remaining after incubation in plasma for 3 or 4.5 days) | DAR after plasma incubation for 3 to 4.5 days (attachment position TG6, plasma species not printed in table (values match mouse plasma, Table 4))
1 | CC[C@H](C)[C@@H]([C@@H](CC(=O)N1CCC[C@H]1[C@H](OC)[C@@H](C)C(=O)N[C@@H](Cc1ccccc1)c1nccs1)OC)N(C)C(=O)[C@@H](NC(=O)C(C)(C)NC(=O)OCc1ccc(NC(=O)[C@H](CCCNC(N)=O)NC(=O)[C@@H](NC(=O)[C@H](CCCCN)NC(=O)NC)C(C)C)cc1)C(C)C [Example 26, N˜2˜-(methylcarbamoyl)-L-lysylvalyl-N-{4-[(8S,11S,12R)-11-[(2S)-butan-2-yl]-12-(2-{(2S)-2-[(1R,2R)-1-methoxy-2-methyl-3-oxo-3-{[(1S)-2-phenyl-1-(1,3-thiazol-2-yl)ethyl]amino}propyl]pyrrolidin-1-yl}-2-oxoethyl)-5,5,10-trimethyl-3,6,9-trioxo-8-(propan-2-yl)-2,13-dioxa-4,7,10-triazatetradec-1-yl]phenyl}-N˜5˜-carbamoyl-L-ornithinamide] ({NHMe-CO}-KV[Cit][PABC][Aib]V[Dil][Dolaproine]-Doe) | 1.16 | 60% | 1.92 | – | – | – | – | – | –
2 | CC[C@H](C)[C@@H]([C@@H](CC(=O)N1CCC[C@H]1[C@H](OC)[C@@H](C)C(=O)N[C@@H](Cc1ccccc1)c1nccs1)OC)N(C)C(=O)[C@@H](NC(=O)C(C)(C)NC(=O)OCc1ccc(NC(=O)[C@H](CCCNC(N)=O)NC(=O)[C@@H](NC(=O)[C@H](COCCOCCOCCOCCOCCOCCN)NC(C)=O)C(C)C)cc1)C(C)C [Example 48, N-acetyl-O-(17-amino-3,6,9,12,15-pentaoxaheptadec-1-yl)-L-seryl-L-valyl-N-{4-[(8S,11S,12R)-11-[(2S)-butan-2-yl]-12-(2-{(2S)-2-[(1R,2R)-1-methoxy-2-methyl-3-oxo-3-{[(1S)-2-phenyl-1-(1,3-thiazol-2-yl)ethyl]amino}propyl]pyrrolidin-1-yl}-2-oxoethyl)-5,5,10-trimethyl-3,6,9-trioxo-8-(propan-2-yl)-2,13-dioxa-4,7,10-triazatetradec-1-yl]phenyl}-N˜5˜-carbamoylornithinamide] (Ac-S(X1)V[Cit][PABC][Aib]V[Dil][Dolaproine]-Doe) | 0 | 0% | 1.94 | – | – | – | – | – | –
3 | CC[C@H](C)[C@@H]([C@@H](CC(=O)N1CCC[C@H]1[C@H](OC)[C@@H](C)C(=O)N[C@@H](Cc1ccccc1)c1nccs1)OC)N(C)C(=O)[C@@H](NC(=O)C(C)(C)NC(=O)OCc1ccc(NC(=O)[C@H](CCCNC(N)=O)NC(=O)[C@@H](NC(=O)[C@H](CCCCN)NC(=O)Cc2cnc[nH]2)C(C)C)cc1)C(C)C [Example 5, N˜2˜-(1H-Imidazol-5-ylacetyl)-L-lysyl-L-valyl-N-{4-[(8S,11S,12R)-11-[(2S)-butan-2-yl]-12-(2-{(2S)-2-[(1R,2R)-1-methoxy-2-methyl-3-oxo-3-{[(1S)-2-phenyl-1-(1,3-thiazol-2-yl)ethyl]amino}propyl]pyrrolidin-1-yl}-2-oxoethyl)-5,5,10-trimethyl-3,6,9-trioxo-8-(propan-2-yl)-2,13-dioxa-4,7,10-triazatetradec-1-yl]phenyl}-N˜5˜-carbamoyl-L-ornithinamide] ({Acetyl(2-(4-imidazolyl))}-KV[Cit][PABC][Aib]V[Dil][Dolaproine]-Doe) | – | – | – | 2.0 | 100% | 1.96 | – | – | –
4 | CC[C@H](C)[C@@H]([C@@H](CC(=O)N1CCC[C@H]1[C@H](OC)[C@@H](C)C(=O)N[C@@H](Cc1ccccc1)c1nccs1)OC)N(C)C(=O)[C@@H](NC(=O)C(C)(C)NC(=O)OCc1ccc(NC(=O)[C@H](CCCNC(N)=O)NC(=O)[C@@H](NC(=O)[C@H](CCCCN)NS(=O)(=O)c2ccccc2)C(C)C)cc1)C(C)C [Example 45, N˜2˜-(phenylsulfonyl)lysyl-L-valyl-N-{4-[(8S,11S,12R)-11-[(2S)-butan-2-yl]-12-(2-{(2S)-2-[(1R,2R)-1-methoxy-2-methyl-3-oxo-3-{[(1S)-2-phenyl-1-(1,3-thiazol-2-yl)ethyl]amino}propyl]pyrrolidin-1-yl}-2-oxoethyl)-5,5,10-trimethyl-3,6,9-trioxo-8-(propan-2-yl)-2,13-dioxa-4,7,10-triazatetradec-1-yl]phenyl}-N˜5˜-carbamoylornithinamide] (Benzenesulfonyl-KV[Cit][PABC][Aib]V[Dil][Dolaproine]-Doe) | 0 | 0% | 0.66 | – | – | – | 1.42 | 3% | 0.04
5 | CC[C@H](C)[C@@H]([C@@H](CC(=O)N1CCC[C@H]1[C@H](OC)[C@@H](C)C(=O)N[C@@H](Cc1ccccc1)c1nccs1)OC)N(C)C(=O)[C@@H](NC(=O)C(C)(C)NC(=O)OCc1ccc(NC(=O)[C@H](CCCNC(N)=O)NC(=O)[C@@H](NC(=O)[C@@H](COCCN)NC(C)=O)C(C)C)cc1)C(C)C [Example 46, N-acetyl-O-(2-aminoethyl)-D-seryl-L-valyl-N-{4-[(8S,11S,12R)-11-[(2S)-butan-2-yl]-12-(2-{(2S)-2-[(1R,2R)-1-methoxy-2-methyl-3-oxo-3-{[(1S)-2-phenyl-1-(1,3-thiazol-2-yl)ethyl]amino}propyl]pyrrolidin-1-yl}-2-oxoethyl)-5,5,10-trimethyl-3,6,9-trioxo-8-(propan-2-yl)-2,13-dioxa-4,7,10-triazatetradec-1-yl]phenyl}-N˜5˜-carbamoylornithinamide] (Ac-[dS](Ethyl(2-NH2))V[Cit][PABC][Aib]V[Dil][Dolaproine]-Doe) | 0.69 | 51% | 1.36 | – | – | – | – | – | –
6 | CC[C@H](C)[C@@H]([C@@H](CC(=O)N1CCC[C@H]1[C@H](OC)[C@@H](C)C(=O)N[C@@H](Cc1ccccc1)c1nccs1)OC)N(C)C(=O)[C@@H](NC(=O)C(C)(C)NC(=O)OCc1ccc(NC(=O)[C@H](CCCNC(N)=O)NC(=O)[C@@H](NC(=O)[C@H](CCCCN)NC(=O)[C@H](C)N)C(C)C)cc1)C(C)C [Example 34, L-alanyl-L-lysylvalyl-N-{4-[(8S,11S,12R)-11-[(2S)-butan-2-yl]-12-(2-{(2S)-2-[(1R,2R)-1-methoxy-2-methyl-3-oxo-3-{[(1S)-2-phenyl-1-(1,3-thiazol-2-yl)ethyl]amino}propyl]pyrrolidin-1-yl}-2-oxoethyl)-5,5,10-trimethyl-3,6,9-trioxo-8-(propan-2-yl)-2,13-dioxa-4,7,10-triazatetradec-1-yl]phenyl}-N˜5˜-carbamoyl-L-ornithinamide] (H-AKV[Cit][PABC][Aib]V[Dil][Dolaproine]-Doe) | 0.86 | 50% | 1.72 | – | – | – | – | – | –
7 | CC[C@H](C)[C@@H]([C@@H](CC(=O)N1CCC[C@H]1[C@H](OC)[C@@H](C)C(=O)N[C@@H](Cc1ccccc1)c1nccs1)OC)N(C)C(=O)[C@@H](NC(=O)C(C)(C)NC(=O)OCc1ccc(NC(=O)[C@H](CCCNC(N)=O)NC(=O)[C@@H](NC(=O)[C@H](CCCCN)NC(=O)CN)C(C)C)cc1)C(C)C [Example 29, glycyl-L-lysylvalyl-N-{4-[(8S,11S,12R)-11-[(2S)-butan-2-yl]-12-(2-{(2S)-2-[(1R,2R)-1-methoxy-2-methyl-3-oxo-3-{[(1S)-2-phenyl-1-(1,3-thiazol-2-yl)ethyl]amino}propyl]pyrrolidin-1-yl}-2-oxoethyl)-5,5,10-trimethyl-3,6,9-trioxo-8-(propan-2-yl)-2,13-dioxa-4,7,10-triazatetradec-1-yl]phenyl}-N˜5˜-carbamoyl-L-ornithinamide] (H-GKV[Cit][PABC][Aib]V[Dil][Dolaproine]-Doe) | 1.46 | 81% | 1.80 | – | – | – | – | – | –
8 | CC[C@H](C)[C@@H]([C@@H](CC(=O)N1CCC[C@H]1[C@H](OC)[C@@H](C)C(=O)N[C@@H](Cc1ccccc1)c1nccs1)OC)N(C)C(=O)[C@@H](NC(=O)C(C)(C)NC(=O)OCc1ccc(NC(=O)[C@H](CCCNC(N)=O)NC(=O)[C@@H](NC(=O)[C@H](COCCOCCN)NC(C)=O)C(C)C)cc1)C(C)C [Example 47, N-acetyl-O-[2-(2-aminoethoxy)ethyl]-L-seryl-L-valyl-N-{4-[(8S,11S,12R)-11-[(2S)-butan-2-yl]-12-(2-{(2S)-2-[(1R,2R)-1-methoxy-2-methyl-3-oxo-3-{[(1S)-2-phenyl-1-(1,3-thiazol-2-yl)ethyl]amino}propyl]pyrrolidin-1-yl}-2-oxoethyl)-5,5,10-trimethyl-3,6,9-trioxo-8-(propan-2-yl)-2,13-dioxa-4,7,10-triazatetradec-1-yl]phenyl}-N˜5˜-carbamoylornithinamide] (Ac-S(X3)V[Cit][PABC][Aib]V[Dil][Dolaproine]-Doe) | 0.40 | 20% | 1.96 | – | – | – | – | – | –
9 | CC[C@H](C)[C@@H]([C@@H](CC(=O)N1CCC[C@H]1[C@H](OC)[C@@H](C)C(=O)N[C@@H](Cc1ccccc1)c1nccs1)OC)N(C)C(=O)[C@@H](NC(=O)C(C)(C)NC(=O)OCc1ccc(NC(=O)[C@H](CCCNC(N)=O)NC(=O)[C@@H](NC(=O)[C@H](CCCCN)NC(=O)CCO)C(C)C)cc1)C(C)C [Example 43, N˜2˜-(3-hydroxypropanoyl)-L-lysylvalyl-N-{4-[(8S,11S,12R)-11-[(2S)-butan-2-yl]-12-(2-{(2S)-2-[(1R,2R)-1-methoxy-2-methyl-3-oxo-3-{[(1S)-2-phenyl-1-(1,3-thiazol-2-yl)ethyl]amino}propyl]pyrrolidin-1-yl}-2-oxoethyl)-5,5,10-trimethyl-3,6,9-trioxo-8-(propan-2-yl)-2,13-dioxa-4,7,10-triazatetradec-1-yl]phenyl}-N˜5˜-carbamoyl-L-ornithinamide] ({Propanoyl(3-OH)}-KV[Cit][PABC][Aib]V[Dil][Dolaproine]-Doe) | 1.23 | 76% | 1.62 | – | – | – | – | – | –
